Laboratory results: PMC6251626

Key:
[1] = target: DRP-bound αβ-tubulin (1:1 complex of porcine αβ-tubulin and DARPin D1) (porcine) (UniProt P02550); test: SEC; quantitative SEC (Superdex 200 10/300) with SDS-PAGE densitometry of fractions; 2 αβ-tubulin per Alp14 subunit, with or without DRP; 200 mM KCl, 50 mM HEPES pH 7.0, 1 mM MgCl2, 1 mM β-mercaptoethanol
[2] = target: αβ-tubulin heterodimer purified from porcine brains (porcine) (UniProt P02550); test: as above
[3] = target: DRP-bound αβ-tubulin (1:1 complex of porcine αβ-tubulin and DARPin D1) (porcine) (UniProt P02550); test: SEC; quantitative SEC (Superdex 200 10/300) with SDS-PAGE densitometry of fractions; 2 αβ-tubulin per Alp14 subunit, with or without DRP; 100 mM KCl, 50 mM HEPES pH 7.0, 1 mM MgCl2, 1 mM β-mercaptoethanol
[4] = target: αβ-tubulin heterodimer purified from porcine brains (porcine) (UniProt P02550); test: as above
[5] = target: DRP-bound αβ-tubulin (1:1 complex of porcine αβ-tubulin and DARPin D1) (porcine) (UniProt P02550); test: SEC; quantitative SEC (Superdex 200 10/300) with SDS-PAGE densitometry of fractions; 1 αβ-tubulin per Alp14 subunit, with or without DRP; 200 mM KCl, 50 mM HEPES pH 7.0, 1 mM MgCl2, 1 mM β-mercaptoethanol
[6] = target: αβ-tubulin heterodimer purified from porcine brains (porcine) (UniProt P02550); test: as above
[7] = target: αβ-tubulin heterodimer purified from porcine brains (porcine) (UniProt P02550); test: SEC-MALS; Alp14 constructs mixed with soluble αβ-tubulin (with or without DRP), Superdex 200 Increase 10/300, 80-100 mM KCl
[8] = target: DRP-bound αβ-tubulin (1:1 complex of porcine αβ-tubulin and DARPin D1) (porcine) (UniProt P02550); test: SEC; quantitative SEC (Superdex 200 10/300) with SDS-PAGE densitometry of fractions; 1 αβ-tubulin per Alp14 subunit, with or without DRP; 100 mM KCl, 50 mM HEPES pH 7.0, 1 mM MgCl2, 1 mM β-mercaptoethanol
[9] = target: αβ-tubulin heterodimer purified from porcine brains (porcine) (UniProt P02550); test: as above
[10] = target: DRP-bound αβ-tubulin (1:1 complex of porcine αβ-tubulin and DARPin D1) (porcine) (UniProt P02550); test: SEC-MALS; Alp14 constructs mixed with soluble αβ-tubulin (with or without DRP), Superdex 200 Increase 10/300, 80-100 mM KCl
[11] = target: DRP-bound αβ-tubulin (1:1 complex of porcine αβ-tubulin and DARPin D1) (porcine) (UniProt P02550); test: ITC; TOG1 or TOG2 (100-250 μM) injected into a cell with 1:1 αβ-tubulin and DRP (20-40 μM); 25°C, 50 mM HEPES pH 7.3, 100 mM KCl, 1 mM MgCl2
[12] = target: DRP-bound αβ-tubulin (1:1 complex of porcine αβ-tubulin and DARPin D1) (porcine) (UniProt P02550); test: ITC; TOG1 or TOG2 (100-250 μM) injected into a cell with 1:1 αβ-tubulin and DRP (20-40 μM); 25°C, 50 mM HEPES pH 7.3, 200 mM KCl, 1 mM MgCl2

B1: wt-Alp14-dimer (S. pombe Alp14 residues 1-690) (domain or fragment)
chain: MSQDQEEDYSKLPLESRIVHKVWKVRLSAYEECSKSFSLSADGSDNCFELWNNQSELWKSVLTDSNVAAQEAGTAAFVAYCRFSDPSHLLKAREISVLSISEKCLTSPRAGTRENALEALMLLVEADSAAPVIESIIPSLSARSPKVIASNVAAIASLVEQFGAKVIPSKMIIPHISNLFGHADKNVRKEASRLTVNIYRWTGDPLKDLLFKDLRPVQTKELESLFAELPTEPPKQTRFLKSQQPTSEPNVETQVEEQPALENEESEPEPSDDQFDLVEEVDVLPNVDPNLETLMASSKWKDRKEALDKLLPVLSQPKIKDNDFFNLVAILTKSVSKDANIMVVINAAHCIQAMAKGLRSNFSKYASTSINALLERSKEKKANVIESLSSAMDAVLATSSLDDLAELIASFAGNKNPQIKSSCFSLFSRSFSNMTSLPSKFTVDTCAKACVPGVSDTFEPVRSAAAEALGVLMKLVGERAINQYLSPLDDIRKSKIRSFYETATVKAKAPTKKSKVKPSKQEESKVVVPSNAKAVKKSVVPSSPVVPSPRKATNKSLSMDVSKGNAFENGPLLPRPTTRPVSRGLSRGTSSSLQQKVKASTPLNSGALNETVQNLKNMELDDPAPQPAKHSRVDRYEHPKVLEDNDSTISSLESLKRENEELREQLKVEHEENISMQKQLSELKGELNTL
- TOG1-TOG2:αβ-tubulin molar ratio [1]: 1.36
- µM tubulin bound [1]: 6.02 µM
- TOG1-TOG2:αβ-tubulin molar ratio [2]: 1.24
- µM tubulin bound [2]: 5.46 µM
- TOG1-TOG2:αβ-tubulin molar ratio [3]: 1.89
- stoichiometry N [3]: 4
- µM tubulin bound [3]: 8.33 µM
- TOG1-TOG2:αβ-tubulin molar ratio [4]: 1.61
- µM tubulin bound [4]: 7.11 µM
- TOG1-TOG2:αβ-tubulin molar ratio [5]: 0.95
- µM tubulin bound [5]: 4.17 µM
- TOG1-TOG2:αβ-tubulin molar ratio [6]: 0.78
- µM tubulin bound [6]: 3.44 µM
- stoichiometry N [7]: 4
- TOG1-TOG2:αβ-tubulin molar ratio [8]: 0.96
- µM tubulin bound [8]: 4.23 µM
- TOG1-TOG2:αβ-tubulin molar ratio [9]: 0.98
- µM tubulin bound [9]: 4.31 µM

B2: wt-Alp14-monomer (S. pombe Alp14 residues 1-510) (domain or fragment)
chain: MSQDQEEDYSKLPLESRIVHKVWKVRLSAYEECSKSFSLSADGSDNCFELWNNQSELWKSVLTDSNVAAQEAGTAAFVAYCRFSDPSHLLKAREISVLSISEKCLTSPRAGTRENALEALMLLVEADSAAPVIESIIPSLSARSPKVIASNVAAIASLVEQFGAKVIPSKMIIPHISNLFGHADKNVRKEASRLTVNIYRWTGDPLKDLLFKDLRPVQTKELESLFAELPTEPPKQTRFLKSQQPTSEPNVETQVEEQPALENEESEPEPSDDQFDLVEEVDVLPNVDPNLETLMASSKWKDRKEALDKLLPVLSQPKIKDNDFFNLVAILTKSVSKDANIMVVINAAHCIQAMAKGLRSNFSKYASTSINALLERSKEKKANVIESLSSAMDAVLATSSLDDLAELIASFAGNKNPQIKSSCFSLFSRSFSNMTSLPSKFTVDTCAKACVPGVSDTFEPVRSAAAEALGVLMKLVGERAINQYLSPLDDIRKSKIRSFYETATVKAKAP
- TOG1-TOG2:αβ-tubulin molar ratio [1]: 1.28
- µM tubulin bound [1]: 5.67 µM
- TOG1-TOG2:αβ-tubulin molar ratio [2]: 1.35
- µM tubulin bound [2]: 5.97 µM
- TOG1-TOG2:αβ-tubulin molar ratio [3]: 1.64
- µM tubulin bound [3]: 7.23 µM
- TOG1-TOG2:αβ-tubulin molar ratio [4]: 2
- µM tubulin bound [4]: 8.82 µM
- TOG1-TOG2:αβ-tubulin molar ratio [5]: 0.94
- µM tubulin bound [5]: 4.13 µM
- TOG1-TOG2:αβ-tubulin molar ratio [6]: 0.76
- µM tubulin bound [6]: 3.37 µM
- stoichiometry N [10]: 2
- stoichiometry N [7]: 2
- TOG1-TOG2:αβ-tubulin molar ratio [8]: 0.98
- µM tubulin bound [8]: 4.33 µM
- TOG1-TOG2:αβ-tubulin molar ratio [9]: 1.04
- µM tubulin bound [9]: 4.57 µM

B3: isolated TOG1 domain of Alp14 (residues 1-270) (domain or fragment)
chain: MSQDQEEDYSKLPLESRIVHKVWKVRLSAYEECSKSFSLSADGSDNCFELWNNQSELWKSVLTDSNVAAQEAGTAAFVAYCRFSDPSHLLKAREISVLSISEKCLTSPRAGTRENALEALMLLVEADSAAPVIESIIPSLSARSPKVIASNVAAIASLVEQFGAKVIPSKMIIPHISNLFGHADKNVRKEASRLTVNIYRWTGDPLKDLLFKDLRPVQTKELESLFAELPTEPPKQTRFLKSQQPTSEPNVETQVEEQPALENEESEPEP
- Kd [11]: 70 nM
- Kd [12]: 1500 nM

B4: isolated TOG2 domain of Alp14 (residues 320-510) (domain or fragment)
chain: KDNDFFNLVAILTKSVSKDANIMVVINAAHCIQAMAKGLRSNFSKYASTSINALLERSKEKKANVIESLSSAMDAVLATSSLDDLAELIASFAGNKNPQIKSSCFSLFSRSFSNMTSLPSKFTVDTCAKACVPGVSDTFEPVRSAAAEALGVLMKLVGERAINQYLSPLDDIRKSKIRSFYETATVKAKAP
- Kd [11]: 173 nM
- Kd [12]: 3250 nM
